Values belong to the binder of their own block, whether it stands above or below them.
Legend:
[1] = molecular target: T1, EphA2-Fc (extracellular domain of human EphA2 linked to human IgG1 constant region) (human, UniProt P29317 24-537); assay: competitive ELISA on EphA2-Fc; competitor: labeled EA2; x axis is the ratio of unlabeled to labeled antibody
T1 construct: extracellular domain; Used as immunogen, ELISA antigen and BIACORE ligand; not shown: human IgG1 constant region
Text: Supernatants from bulk culture hybridomas were screened for immunoreactivity against EphA2 (Table 6, column 4) using standard molecular biological techniques (e.g., ELISA immunoassay). Supernatants were further screened for the ability to inhibit an EphA2 monoclonal antibody (EA2; ATCC deposit no. PTA-4380; see co-pending U.S. patent application Ser. No. 10/436,783, entitled “EphA2 Agonistic Monoclonal Antibodies and Methods of Use Thereof” filed May 12, 2003) from binding to EphA2. […] Both antibodies could decrease the amount of labeled EA2 binding to EphA2-Fc with increasing concentrations of unlabeled antibody added. Additionally, many of the other antibodies could inhibit EA2 binding to EphA2 as well (Table 6, column 3).

[2] = molecular target: T2, EphA2 on cells (MDA-MB-231, MCF-10A, MCF-7 transfected with human EphA2) (human, UniProt P29317 24-976); assay: immunofluorescence, 10 µg/ml at 4 C, MDA-MB-231 and MCF-10A cells
T2 construct: whole, on cells; MDA-MB-231 and MCF-10A carry endogenous EphA2 and no species is stated for them
Protocol: The epitopes of EphA2 antibodies were characterized. […] EA2 preferentially binds EphA2 on transformed cells (FIG. 16D). […] Treatment of non-transformed MCF-10A cells with 4 mM EGTA for 20 min. dissociated the cells. EA2 bound EphA2 on the EGTA dissociated cells but not the untreated cells (FIGS. 17A-17B).

[3] = molecular target: T1, EphA2-Fc (extracellular domain of human …); assay: BIACORE, EphA2-Fc immobilized on a CM5 chip, double-referenced; undiluted hybridoma supernatant
Protocol: EphA2-Fc was immobilize to a surface on a CM5 sensorchip using a standard amine (70 μl of a 1:1 mix of NHS/EDC) coupling chemistry. Briefly, a 400 nM solution of EphA2-Fc in 10 mM NaOAc, pH4, was then injected over the activated surface to a density of 1000-1100 RU's. Unused reactive esters were subsequently “capped” with a 70 μinjection of 1M Et-NH2. Similarly, an activated and “capped” control surface was prepared on the same sensor chip without protein to serve as a reference surface.
A 250 μl injection of each of the EphA2 hybridoma supernatants was made over both the EphA2-Fc and control surfaces, and the binding responses were recorded. These supernatants were used undiluted. Following each injection, at least 10 min. of dissociation phase data was collected. Purified EphA2 monoclonal antibody EA2 was prepared to serve as a positive control (at 1 μg, 5 μg and 25 μg per 250 μl of growth medium). […] Control injections of growth medium across these surfaces were also made. Following each binding cycle, the EphA2-Fc surface was regenerated with a single 1 min. pulse (injection) of 1M NaCl-50 mM NaOH.

T1 sequence (P29317 24-537): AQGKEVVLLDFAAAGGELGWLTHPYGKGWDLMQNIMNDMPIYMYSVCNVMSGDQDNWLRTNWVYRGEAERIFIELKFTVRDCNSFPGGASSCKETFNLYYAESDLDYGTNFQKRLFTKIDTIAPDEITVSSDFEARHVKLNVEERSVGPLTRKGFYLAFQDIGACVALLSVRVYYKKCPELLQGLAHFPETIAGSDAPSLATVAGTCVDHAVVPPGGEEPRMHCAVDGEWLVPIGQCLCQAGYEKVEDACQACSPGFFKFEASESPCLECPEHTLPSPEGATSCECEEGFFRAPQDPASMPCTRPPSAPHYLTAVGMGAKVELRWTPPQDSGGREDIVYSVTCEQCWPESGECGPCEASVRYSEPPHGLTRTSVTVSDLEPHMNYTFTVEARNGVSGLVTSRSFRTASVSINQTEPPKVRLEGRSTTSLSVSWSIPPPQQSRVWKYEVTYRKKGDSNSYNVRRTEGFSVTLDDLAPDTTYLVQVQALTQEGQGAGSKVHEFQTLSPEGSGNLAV
T2 sequence (P29317 24-976): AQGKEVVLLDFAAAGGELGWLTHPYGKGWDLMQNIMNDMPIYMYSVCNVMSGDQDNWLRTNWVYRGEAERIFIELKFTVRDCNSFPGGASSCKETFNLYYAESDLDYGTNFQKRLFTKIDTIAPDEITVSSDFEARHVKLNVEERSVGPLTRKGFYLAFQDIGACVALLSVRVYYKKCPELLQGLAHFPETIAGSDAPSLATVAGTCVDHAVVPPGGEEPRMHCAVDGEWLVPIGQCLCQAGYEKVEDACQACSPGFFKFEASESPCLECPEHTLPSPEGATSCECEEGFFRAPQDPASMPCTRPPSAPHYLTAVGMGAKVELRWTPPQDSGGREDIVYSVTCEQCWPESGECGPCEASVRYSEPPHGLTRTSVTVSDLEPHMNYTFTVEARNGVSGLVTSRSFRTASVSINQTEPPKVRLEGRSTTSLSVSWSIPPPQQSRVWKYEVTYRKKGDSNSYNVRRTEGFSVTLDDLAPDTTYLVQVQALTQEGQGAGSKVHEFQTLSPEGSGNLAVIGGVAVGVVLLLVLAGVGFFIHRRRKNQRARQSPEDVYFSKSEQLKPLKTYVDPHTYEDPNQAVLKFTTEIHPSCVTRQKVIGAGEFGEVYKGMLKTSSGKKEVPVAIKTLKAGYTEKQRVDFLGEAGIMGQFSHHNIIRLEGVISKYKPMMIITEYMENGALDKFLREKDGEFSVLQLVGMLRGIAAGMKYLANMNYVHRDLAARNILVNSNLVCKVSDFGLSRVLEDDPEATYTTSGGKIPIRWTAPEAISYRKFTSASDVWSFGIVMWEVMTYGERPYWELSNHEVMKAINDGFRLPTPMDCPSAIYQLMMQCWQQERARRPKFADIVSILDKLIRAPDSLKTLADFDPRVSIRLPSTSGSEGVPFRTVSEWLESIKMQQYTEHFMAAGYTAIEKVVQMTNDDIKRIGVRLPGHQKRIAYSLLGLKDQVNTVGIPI

- binding result [1]: binds
B1: Eph099B-208.261 (ATCC PTA-4573) (antibody, V domains shown)
VH: QVQLQQPGAELVKPGASVKLSCKASGYTFTSYWMHWVKQRPGQGLEWIGMIHPNSGSTNYNEKFKSKATLTVDKSSSTAYMRLSSLTSEDSAVYYCARGGNMVGGGYWGQGTTLTVSS
VL: QIVLTQSPALMSASPGEKVTMTCSASSSVSYMYWYQQKPRSSPKPWIYLTTNLASGVPARFSGSGSGTSYSLTISSMEAEDAATYYCQQWSSNPFTFGSGTKLEIR
notes: Mouse hybridoma antibody (SJL mice)

- binding result [2]: binds
- binding result [3]: binds
B2: Eph099B-233.152 (ATCC PTA-5194) (antibody, V domains shown)
VH: EVKLVESGGGLVQPGGSLSLSCAASGFTFTDYSMNWVRQPPGKALEWLGFIRNKANDYTTEYSASVKGRFTISRDNSQSILYLQMNALRAEDSATYYCVRYPRYHAMDSWGQGTSVTVSS
VL: DIVLTQSPATLSVTPGDSVNLSCRASQSISNNLHWYQQKSHESPRLLIKYVFQSISGIPSRFSGSGSGTDFTLSINSVETEDFGMYFCQQSNSWPLTFGAGTKLELK
notes: Mouse hybridoma antibody (SJL mice); detected with anti-mouse IgG
